According to the supplement of paper PMC10724198:
± gives the standard deviation of the averaged measurements.

Test system: Saccharomyces cerevisiae
Experiment: protein stability index of tFT-peptide fusion (C-terminal peptide) (PSI (0-1 scale)); higher = more stable (slower turnover)
Details: genetic background: wild type; temperature: 30 C
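Also: PSI is a weighted mean of sequencing reads over stability bins, variants kept only with over 10 reads, mCherry proximal and sfGFP distal, peptide attached via GGGS linker.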

Sequence	protein stability index
GVVLDVRCVGLF	0.661 ± 0.021
KYMENQLSYDAD	0.646 ± 0.051
PVILPPLAPFLS	0.629 ± 0.019
LGRMCSRITVGV	0.543 ± 0.026
PPLPLLSTCAGA	0.69 ± 0.15
LPSSAVDLYTRP	0.6468 ± 0.0059
KLPILDKKAVAQ	0.696 ± 0.03
CFEGPSSRRYFV	0.699 ± 0.083
FFAPPSSPSFSR	0.822 ± 0.063
KGGWGMRGVRGG	0.672 ± 0.0046
GFLPCKVVRTCV	0.549 ± 0.055
GGRNGLGITGGE	0.648 ± 0.034
PTVPLSSVVRDA	0.746 ± 0.051
LPMGGMFVARSI	0.653 ± 0.059
FNGAISESGLPT	0.664 ± 0.053
GDGWLSGVPEEL	0.74 ± 0.017
GAGKGWARWLVW	0.632 ± 0.041
VSTLAPPQLQFK	0.669 ± 0.081
RTEATFKTTPVG	0.687 ± 0.013
PPPLPASPPPPY	0.683 ± 0.035
PPSHYPFTPADP	0.728 ± 0.046
RVLPASRFSFLF	0.743 ± 0.036
QTKAGKRKEKRE	0.72 ± 0.12
RPPGPPPPAPFP	0.711 ± 0.015
KNAQQYQKKQKQ	0.797 ± 0.056

Sequence	protein stability index
RLGNVYSTSFQC	0.618 ± 0.012
GEGLWGGRGRRW	0.687 ± 0.046
ARCSPVPWGGGE	0.647 ± 0.033
TRSLPPELTPRR	0.705 ± 0.021
SSSVSARAVSLP	0.6958 ± 0.0033
PSPFPPPSHPSP	0.695 ± 0.0041
IEPTFDGSLCLG	0.7 ± 0.0094
GEGTERLGKSTR	0.651 ± 0.046
ISSGRRFRAGAE	0.703 ± 0.046
ILSDCWDQTIIE	0.671 ± 0.018
PVLANPQGHPPN	0.719 ± 0.027
HSRSRAEPHHPP	0.555 ± 0.037
CGGGGVVGAGWG	0.728 ± 0.061
VGGAPLVSACCI	0.596 ± 0.022
TARRAAARSSQL	0.742 ± 0.03
CLRKKYSNTLLM	0.647 ± 0.028
LSAFLLLMPRLP	0.659 ± 0.01
PSPPPLLPRPHL	0.714 ± 0.1
YRPFQAPPLVLF	0.6379 ± 0.0026
PPLSPPALPPPL	0.672 ± 0.0076
PHASRRPPTLLC	0.514 ± 0.01
PHPTTPPAPRPR	0.728 ± 0.0095
GVANSPTVRERT	0.666 ± 0.018
SRTLPPPSPGLH	0.714 ± 0.013
LWCDTRIDMSRH	0.737 ± 0.038

Sequence	protein stability index
LRGIGVSWWKGL	0.583 ± 0.023
SGVSICLSGMGK	0.611 ± 0.017
PPTFRLHCPPAT	0.72 ± 0.02
AVSCTAWVTALG	0.522 ± 0.012
CFLCLAYGFFSF	0.571 ± 0.03
FSLLSSSSFFVL	0.591 ± 0.01
GSWGRPAGFSRR	0.651 ± 0.028
PYVLGRDVVVLF	0.7 ± 0.06
SRFWLCGKCLWH	0.7051 ± 0.0045
WRTRRVVFPNWH	0.666 ± 0.008
AHPPSPPPTRRP	0.676 ± 0.0079
CSRDNRTSRSIL	0.681 ± 0.032
VIQVRDLRLFSR	0.734 ± 0.028
KCKRGYSAVREL	0.936 ± 0.09
ASFWLPSNLLPI	0.7322 ± 0.0013
GRGGAGFRGGIE	0.6707 ± 0.0044
ASRWGYSATTVG	0.697 ± 0.026
PPAAPPPPPLPP	0.735 ± 0.039
WGGWGRVWVKLG	0.701 ± 0.05
AFRSISERLGGS	0.784 ± 0.018
PPADKRILQQIR	0.692 ± 0.039
GGIPINVLPGCR	0.739 ± 0.15
FYREFNSSSVCT	0.788 ± 0.24
